Measured values as given in publication PMC7613635 (Nature structural & molecular biology, 2022).
Where a chain is given by its changes, count along the chain named. Blank lines part the entries; values can stand above or below the binder they belong to.

Columns and labels:
Gallus gallus FANCD2 [1] = target: T1, Gallus gallus FANCD2 (Gallus gallus (chicken), UniProt Q68Y81 1-1439); test: cross-linking
Gallus gallus FANCD2 [2] = target: T1, Gallus gallus FANCD2; test: cryo-EM structure

T1 sequence (Q68Y81 whole entry): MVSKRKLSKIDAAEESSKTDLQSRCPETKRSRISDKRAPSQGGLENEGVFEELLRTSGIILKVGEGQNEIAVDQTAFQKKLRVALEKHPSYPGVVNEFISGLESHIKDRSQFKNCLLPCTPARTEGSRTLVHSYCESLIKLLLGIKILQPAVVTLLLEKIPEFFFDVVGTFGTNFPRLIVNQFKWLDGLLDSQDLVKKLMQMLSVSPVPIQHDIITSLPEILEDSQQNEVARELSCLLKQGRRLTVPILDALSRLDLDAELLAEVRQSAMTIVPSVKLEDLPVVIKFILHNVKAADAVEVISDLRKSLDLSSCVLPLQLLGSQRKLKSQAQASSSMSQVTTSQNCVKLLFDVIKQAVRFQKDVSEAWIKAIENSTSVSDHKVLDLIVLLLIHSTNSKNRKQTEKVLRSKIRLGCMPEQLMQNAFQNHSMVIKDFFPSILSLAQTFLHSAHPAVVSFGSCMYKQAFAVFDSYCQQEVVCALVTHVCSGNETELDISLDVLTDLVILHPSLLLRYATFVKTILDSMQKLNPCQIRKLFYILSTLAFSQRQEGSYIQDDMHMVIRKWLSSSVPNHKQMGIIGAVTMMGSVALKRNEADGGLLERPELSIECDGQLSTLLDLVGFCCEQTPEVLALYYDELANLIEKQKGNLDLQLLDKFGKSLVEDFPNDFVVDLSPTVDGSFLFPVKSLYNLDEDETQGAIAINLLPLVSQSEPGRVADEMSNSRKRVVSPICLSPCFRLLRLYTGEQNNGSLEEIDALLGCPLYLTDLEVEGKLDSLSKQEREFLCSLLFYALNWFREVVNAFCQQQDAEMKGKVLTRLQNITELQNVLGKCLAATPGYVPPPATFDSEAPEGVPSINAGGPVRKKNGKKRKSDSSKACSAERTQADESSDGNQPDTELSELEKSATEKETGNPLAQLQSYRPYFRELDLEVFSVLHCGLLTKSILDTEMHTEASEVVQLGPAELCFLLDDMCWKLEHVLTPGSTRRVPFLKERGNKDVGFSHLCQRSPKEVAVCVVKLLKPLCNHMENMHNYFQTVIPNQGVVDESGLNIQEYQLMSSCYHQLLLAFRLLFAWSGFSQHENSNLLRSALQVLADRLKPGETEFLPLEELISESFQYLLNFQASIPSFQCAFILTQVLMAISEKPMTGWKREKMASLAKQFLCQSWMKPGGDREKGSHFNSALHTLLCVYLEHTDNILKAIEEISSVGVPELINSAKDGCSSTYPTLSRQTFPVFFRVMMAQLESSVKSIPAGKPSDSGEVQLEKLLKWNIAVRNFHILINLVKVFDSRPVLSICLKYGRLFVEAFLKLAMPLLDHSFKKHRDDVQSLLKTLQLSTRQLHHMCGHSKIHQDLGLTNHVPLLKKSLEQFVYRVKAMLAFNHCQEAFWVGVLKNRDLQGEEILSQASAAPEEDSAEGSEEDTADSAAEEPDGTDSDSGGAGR

binding result (Gallus gallus FANCD2 [1]): binds
B1: Gallus gallus FANCI, wild type (natural protein, Gallus gallus (chicken), UniProt B0I564 1-1338, looked up)
chain: MAQRILQLAAEGSPERLQEALQGLTEGELGDMVTRQALRGRETAALLKGIFKGSPCSQQSGVLRRLQVYKHCVSLVESGDLHVGKVSEIIGLLMLEARQLPGHALAELATLFVEVIKRGSLSNGKSLELFSTVLTALSNSKESLAYGKGELNGEEFKKQLINTLCSSKWDPQCVIHLANMFRDIPLSGEELQFVVEKVLRMFSKLDLQEIPPLVYQLLLLSAKGSKKTVLEGIISFFNQLDKRQKEEQRVPQSADLEVATVPLDQLRHVEGTVILHIVSAINLDQDIGEELIKHLKTEQQKDPGKALCPFSVSLLLSTAVKHRLQEQIFDFLKTSITRSCKDLQILQASKFLQDLCPQQYDVTAVILEVVKNSAFGWDHVTQGLVDLGFSLMESYEPKKSFGGKAAETNLGLSKMPAQQACKLGASILLETFKVHEPIRSDILEQVLNRVLTKAASPVSHFIDLLSNIVVSAPLVLQNSSSRVTETFDNLSFLPIDTVQGLLRAVQPLLKVSMSVRDSLILVLQKAIFSRQLDARKAAVAGFLLLLRNFKILGSLTSSQCSQAIGATQVQADVHACYNSAANEAFCLEILGSLRRCLSQQADVRLMLYEGFYDVLRRNSQLASSIMETLLSQIKQYYLPQQDLLPPLKLEGCIMAQGDQIFLQEPLAHLLCCIQHCLAWYKSTVHLCKGAEDEEEEEDVGFEQNFEEMLESVTRRMIKSELEDFELDKSADFSPSSGVGVKNNIYAIQVMGICEVLIEYNFKIGNFSKNKFEDVLGLFTCYNKLSEILKEKAGKNKSTLGNRIARSFLSMGFVSTLLTALFRDNAQSHEESLAVLRSSTEFMRYAVSVALQKVQQLEEMGQTDGPDGQNPEKMFQNLCKITRVLLWRYTSIPTAVEESGKKKGKSISLLCLEGLLRIFNTMQQLYAARIPQFLQALDITDGDAEEADINVTEKAAFQIRQFQRSLVNQLSSAEDDFNSKETQLLITILSTLSKLLDPGSQQFLQFLTWTVKICKENALEDLSCCKGLLTLLFSLHVLYKSPVSLLRELAQDIHACLGDIDQDVEIESRSHFAIVNVKTAAPTVCLLVLGQADKVLEEVDWLIKRLTILGSDTSEDSTQASNQTQALEKGVILQLGTLLTVFHELVQTALPAGSCVDSLLRSLSKTYAILTSLIKHYIQACRSTSNTVPGRLEKLVKLSGSHLTPQCYSFITYVQNIHSESLSFAEEKKKKKKEDETAVVSTVMAKVLRDTKPIPNLIFAIEQYEKFLIHLSKKSKVNLMQYMKLSTSRDFRINASMLDSVLQEQNTEDAENEPDNNQSGTAEQPDENQEPQKKRRRKK

binding result (Gallus gallus FANCD2 [2]): binds
B2: phosphomimetic chicken FANCI (I^3D) (natural protein, Gallus gallus (chicken), UniProt B0I564 1-1338, looked up)
chain: B1 chain with S558D, S561D, T567D
